Data taken from publication PMC12145271, “A Lrp/AsnC Family Transcriptional Regulator Lrp Is Essential for the Pathogenicity of Dickeya oryzae”.

T1: Lrp (Dickeya oryzae EC1, UniProt A0AB39ITC9 1-164)
T1 sequence: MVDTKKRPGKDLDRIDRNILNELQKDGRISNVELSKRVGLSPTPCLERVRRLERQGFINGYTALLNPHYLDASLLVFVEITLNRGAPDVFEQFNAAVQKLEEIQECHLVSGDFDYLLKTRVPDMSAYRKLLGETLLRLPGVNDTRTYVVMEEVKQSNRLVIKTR


Tests used:
Lrp [1] = molecular target: T1, Lrp; assay: EMSA; 1 uM Lrp, 20 fmol probe; settings: protein: recombinant; tags: GST tag removed with PreScission protease (pGEX-6P-1, BamHI/EcoRI-site primers; N-terminal vector residues may remain); chain copies: 2; label: biotin
Lrp [2] = molecular target: T1, Lrp; assay: EMSA; settings: protein: recombinant; tags: GST tag removed with PreScission protease (pGEX-6P-1, BamHI/EcoRI-site primers; N-terminal vector residues may remain); chain copies: 2

| Binder | binding result (Lrp [1]) | binding result (Lrp [2]) |
| --- | --- | --- |
| PzmsA(24) (dsDNA) DNA 1: GTGTAATTATGGGCGTGCTCCGGG DNA 2: CCCGGAGCACGCCCATAATTACAC | binds | – |
| PzmsA(24)PM (dsDNA) DNA 1: GTGTGAAAAGAGTGAGAGACCACG DNA 2: CGTGGTCTCTCACTCTTTTCACAC | – | no binding |
